# Measurements reported in patent US20180155451A1 (published 2018).
# T1: FcγRIIa R (FcγRIIa, allotype R: Arg at position 131) extracellular domain with C-terminal His tag (human, UniProt P12318 34-217)
# T1 construct: extracellular domain; also called FcgRIIa R; 2aR; not shown: His tag at the C terminus
# T1 sequence (looked up): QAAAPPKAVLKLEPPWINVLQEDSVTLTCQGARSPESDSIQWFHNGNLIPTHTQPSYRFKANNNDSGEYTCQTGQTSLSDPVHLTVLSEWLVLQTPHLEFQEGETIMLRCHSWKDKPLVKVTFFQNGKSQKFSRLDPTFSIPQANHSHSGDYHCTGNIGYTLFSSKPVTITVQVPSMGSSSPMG
# T2: FcγRIIb extracellular domain with C-terminal His tag (human, UniProt P31994 43-217)
# T2 construct: extracellular domain; also called FcgRIIb; 2b; not shown: His tag at the C terminus
# T2 sequence (looked up): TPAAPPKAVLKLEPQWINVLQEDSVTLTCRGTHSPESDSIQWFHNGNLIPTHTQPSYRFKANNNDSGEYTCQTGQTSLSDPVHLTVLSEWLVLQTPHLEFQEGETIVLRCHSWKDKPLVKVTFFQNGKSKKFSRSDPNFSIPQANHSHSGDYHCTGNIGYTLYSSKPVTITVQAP
# Experiments:
# [1] = target: T1, FcγRIIa R (FcγRIIa, allotype R: Arg at …); experiment: ratio He/Con_2aR : He/Con_2b (FcgRIIa R over FcgRIIb), SPR Biacore
# Description: The heterodimerized antibodies He Abs in which one of the H chains was introduced with an alteration were assayed for their binding activities to each activating FcγR and inhibitory FcγR according to the method described in Example 4. […] The activating FcγRs in FIGS. 26, 27, 28, and 29 are FcγRIa, FcγRIIa (R), FcγRIIa (H), and FcγRIIIa, respectively.
# Analysis of interaction between objective antibody and the FcγR was carried out using Biacore T100 (GE Healthcare). HBS-EP+ (GE Healthcare) was used as the running buffer, and the measurement temperature was set to 25° C. Chips produced by immobilizing the antigen peptide by the amine coupling method to a Series S Sencor Chip CM5 (GE Healthcare), or alternatively, chips produced by allowing preliminarily biotinylated antigen peptides to interact with and immobilize onto a Series S Sensor Chip SA (certified) (GE Healthcare) were used. Antibodies of interest were captured onto an antigen peptide-immobilized chip, and allowed to interact to each FcγR diluted with running buffer. To regenerate and repeatedly use the chip, the antibodies captured on the chip were washed off by reacting 10 mM glycine-HCl, pH 1.5.
# [2] = target: T2, FcγRIIb extracellular domain with …; experiment: SPR Biacore, antibody captured, FcgR analyte; vs HeCon Ab GpH7-A5/GpH7-B3/GpL16-k0 = 100
# [3] = target: T1, FcγRIIa R (FcγRIIa, allotype R: Arg at …); experiment: as above
Binder,He_2aR/2b (IIaR/IIb) [1],He/Con_2b [2] [control = 100],He/Con_2aR [3] [control = 100]
"GpH7-A5/GpH7-B3 variant G236_04F/GpL16-k0 (antibody, human IgG1, kappa, He Ab: alteration in the GpH7-B3 H chain only; also called He Ab) heavy 1: not shown heavy 2: not shown light: DIVMTQSPLSLPVTPGEPASISCQASESLVHSNRNTYLHWYLQKPGQSPQLLIYKVSNRFSGVPDRFSGSGSGTDFTLKISRVEAEDVGVYYCSQNTHVPPTFGQGTKVEIERTVAAPSVFIFPPSDEQLKSGTASVVCLLNNFYPREAKVQWKVDNALQSGNSQESVTEQDSKDSTYSLSSTLTLSKADYEKHKVYACEVTHQGLSSPVTKSFNRGEC",1.35,39.3,53.1
"GpH7-A5/GpH7-B3 variant G236_08L/GpL16-k0 (antibody, human IgG1, kappa, He Ab: alteration in the GpH7-B3 H chain only; also called He Ab) heavy 1: not shown heavy 2: not shown light: DIVMTQSPLSLPVTPGEPASISCQASESLVHSNRNTYLHWYLQKPGQSPQLLIYKVSNRFSGVPDRFSGSGSGTDFTLKISRVEAEDVGVYYCSQNTHVPPTFGQGTKVEIERTVAAPSVFIFPPSDEQLKSGTASVVCLLNNFYPREAKVQWKVDNALQSGNSQESVTEQDSKDSTYSLSSTLTLSKADYEKHKVYACEVTHQGLSSPVTKSFNRGEC",2.45,26.8,65.8
"GpH7-A5/GpH7-B3 variant G236_07I/GpL16-k0 (antibody, human IgG1, kappa, He Ab: alteration in the GpH7-B3 H chain only; also called He Ab) heavy 1: not shown heavy 2: not shown light: DIVMTQSPLSLPVTPGEPASISCQASESLVHSNRNTYLHWYLQKPGQSPQLLIYKVSNRFSGVPDRFSGSGSGTDFTLKISRVEAEDVGVYYCSQNTHVPPTFGQGTKVEIERTVAAPSVFIFPPSDEQLKSGTASVVCLLNNFYPREAKVQWKVDNALQSGNSQESVTEQDSKDSTYSLSSTLTLSKADYEKHKVYACEVTHQGLSSPVTKSFNRGEC",2.81,31,87.1
"GpH7-A5/GpH7-B3 variant G236_12R/GpL16-k0 (antibody, human IgG1, kappa, He Ab: alteration in the GpH7-B3 H chain only; also called He Ab) heavy 1: not shown heavy 2: not shown light: DIVMTQSPLSLPVTPGEPASISCQASESLVHSNRNTYLHWYLQKPGQSPQLLIYKVSNRFSGVPDRFSGSGSGTDFTLKISRVEAEDVGVYYCSQNTHVPPTFGQGTKVEIERTVAAPSVFIFPPSDEQLKSGTASVVCLLNNFYPREAKVQWKVDNALQSGNSQESVTEQDSKDSTYSLSSTLTLSKADYEKHKVYACEVTHQGLSSPVTKSFNRGEC",3.55,6.8,24.1
"GpH7-A5/GpH7-B3 variant G236_05P/GpL16-k0 (antibody, human IgG1, kappa, He Ab: alteration in the GpH7-B3 H chain only; also called He Ab) heavy 1: not shown heavy 2: not shown light: DIVMTQSPLSLPVTPGEPASISCQASESLVHSNRNTYLHWYLQKPGQSPQLLIYKVSNRFSGVPDRFSGSGSGTDFTLKISRVEAEDVGVYYCSQNTHVPPTFGQGTKVEIERTVAAPSVFIFPPSDEQLKSGTASVVCLLNNFYPREAKVQWKVDNALQSGNSQESVTEQDSKDSTYSLSSTLTLSKADYEKHKVYACEVTHQGLSSPVTKSFNRGEC",2.52,19,47.9
"GpH7-A5/GpH7-B3 variant G236_13S/GpL16-k0 (antibody, human IgG1, kappa, He Ab: alteration in the GpH7-B3 H chain only; also called He Ab) heavy 1: not shown heavy 2: not shown light: DIVMTQSPLSLPVTPGEPASISCQASESLVHSNRNTYLHWYLQKPGQSPQLLIYKVSNRFSGVPDRFSGSGSGTDFTLKISRVEAEDVGVYYCSQNTHVPPTFGQGTKVEIERTVAAPSVFIFPPSDEQLKSGTASVVCLLNNFYPREAKVQWKVDNALQSGNSQESVTEQDSKDSTYSLSSTLTLSKADYEKHKVYACEVTHQGLSSPVTKSFNRGEC",1.41,96.7,136
"GpH7-A5/GpH7-B3 variant G236_06M/GpL16-k0 (antibody, human IgG1, kappa, He Ab: alteration in the GpH7-B3 H chain only; also called He Ab) heavy 1: not shown heavy 2: not shown light: DIVMTQSPLSLPVTPGEPASISCQASESLVHSNRNTYLHWYLQKPGQSPQLLIYKVSNRFSGVPDRFSGSGSGTDFTLKISRVEAEDVGVYYCSQNTHVPPTFGQGTKVEIERTVAAPSVFIFPPSDEQLKSGTASVVCLLNNFYPREAKVQWKVDNALQSGNSQESVTEQDSKDSTYSLSSTLTLSKADYEKHKVYACEVTHQGLSSPVTKSFNRGEC",1.26,45.5,57.3

# Continued, values first:
He_2aR/2b (IIaR/IIb) [1],He/Con_2b [2] [control = 100],He/Con_2aR [3] [control = 100],Binder
1.78,57.8,103,"GpH7-A5/GpH7-B3 variant G236_14T/GpL16-k0 (antibody, human IgG1, kappa, He Ab: alteration in the GpH7-B3 H chain only; also called He Ab) heavy 1: not shown heavy 2: not shown light: DIVMTQSPLSLPVTPGEPASISCQASESLVHSNRNTYLHWYLQKPGQSPQLLIYKVSNRFSGVPDRFSGSGSGTDFTLKISRVEAEDVGVYYCSQNTHVPPTFGQGTKVEIERTVAAPSVFIFPPSDEQLKSGTASVVCLLNNFYPREAKVQWKVDNALQSGNSQESVTEQDSKDSTYSLSSTLTLSKADYEKHKVYACEVTHQGLSSPVTKSFNRGEC"
1.43,54.8,78.6,"GpH7-A5/GpH7-B3 variant G237_14T/GpL16-k0 (antibody, human IgG1, kappa, He Ab: alteration in the GpH7-B3 H chain only; also called He Ab) heavy 1: not shown heavy 2: not shown light: DIVMTQSPLSLPVTPGEPASISCQASESLVHSNRNTYLHWYLQKPGQSPQLLIYKVSNRFSGVPDRFSGSGSGTDFTLKISRVEAEDVGVYYCSQNTHVPPTFGQGTKVEIERTVAAPSVFIFPPSDEQLKSGTASVVCLLNNFYPREAKVQWKVDNALQSGNSQESVTEQDSKDSTYSLSSTLTLSKADYEKHKVYACEVTHQGLSSPVTKSFNRGEC"
1.52,61.4,93,"GpH7-A5/GpH7-B3 variant G237_03V/GpL16-k0 (antibody, human IgG1, kappa, He Ab: alteration in the GpH7-B3 H chain only; also called He Ab) heavy 1: not shown heavy 2: not shown light: DIVMTQSPLSLPVTPGEPASISCQASESLVHSNRNTYLHWYLQKPGQSPQLLIYKVSNRFSGVPDRFSGSGSGTDFTLKISRVEAEDVGVYYCSQNTHVPPTFGQGTKVEIERTVAAPSVFIFPPSDEQLKSGTASVVCLLNNFYPREAKVQWKVDNALQSGNSQESVTEQDSKDSTYSLSSTLTLSKADYEKHKVYACEVTHQGLSSPVTKSFNRGEC"
1.34,58.2,77.9,"GpH7-A5/GpH7-B3 variant G236_20W/GpL16-k0 (antibody, human IgG1, kappa, He Ab: alteration in the GpH7-B3 H chain only; also called He Ab) heavy 1: not shown heavy 2: not shown light: DIVMTQSPLSLPVTPGEPASISCQASESLVHSNRNTYLHWYLQKPGQSPQLLIYKVSNRFSGVPDRFSGSGSGTDFTLKISRVEAEDVGVYYCSQNTHVPPTFGQGTKVEIERTVAAPSVFIFPPSDEQLKSGTASVVCLLNNFYPREAKVQWKVDNALQSGNSQESVTEQDSKDSTYSLSSTLTLSKADYEKHKVYACEVTHQGLSSPVTKSFNRGEC"
2.24,27.9,62.7,"GpH7-A5/GpH7-B3 variant G236_16H/GpL16-k0 (antibody, human IgG1, kappa, He Ab: alteration in the GpH7-B3 H chain only; also called He Ab) heavy 1: not shown heavy 2: not shown light: DIVMTQSPLSLPVTPGEPASISCQASESLVHSNRNTYLHWYLQKPGQSPQLLIYKVSNRFSGVPDRFSGSGSGTDFTLKISRVEAEDVGVYYCSQNTHVPPTFGQGTKVEIERTVAAPSVFIFPPSDEQLKSGTASVVCLLNNFYPREAKVQWKVDNALQSGNSQESVTEQDSKDSTYSLSSTLTLSKADYEKHKVYACEVTHQGLSSPVTKSFNRGEC"
1.48,39.5,58.6,"GpH7-A5/GpH7-B3 variant G236_15Y/GpL16-k0 (antibody, human IgG1, kappa, He Ab: alteration in the GpH7-B3 H chain only; also called He Ab) heavy 1: not shown heavy 2: not shown light: DIVMTQSPLSLPVTPGEPASISCQASESLVHSNRNTYLHWYLQKPGQSPQLLIYKVSNRFSGVPDRFSGSGSGTDFTLKISRVEAEDVGVYYCSQNTHVPPTFGQGTKVEIERTVAAPSVFIFPPSDEQLKSGTASVVCLLNNFYPREAKVQWKVDNALQSGNSQESVTEQDSKDSTYSLSSTLTLSKADYEKHKVYACEVTHQGLSSPVTKSFNRGEC"
1.59,46.6,74.2,"GpH7-A5/GpH7-B3 variant G236_19Q/GpL16-k0 (antibody, human IgG1, kappa, He Ab: alteration in the GpH7-B3 H chain only; also called He Ab) heavy 1: not shown heavy 2: not shown light: DIVMTQSPLSLPVTPGEPASISCQASESLVHSNRNTYLHWYLQKPGQSPQLLIYKVSNRFSGVPDRFSGSGSGTDFTLKISRVEAEDVGVYYCSQNTHVPPTFGQGTKVEIERTVAAPSVFIFPPSDEQLKSGTASVVCLLNNFYPREAKVQWKVDNALQSGNSQESVTEQDSKDSTYSLSSTLTLSKADYEKHKVYACEVTHQGLSSPVTKSFNRGEC"
1.4,24.6,34.5,"GpH7-A5/GpH7-B3 variant G237_05P/GpL16-k0 (antibody, human IgG1, kappa, He Ab: alteration in the GpH7-B3 H chain only; also called He Ab) heavy 1: not shown heavy 2: not shown light: DIVMTQSPLSLPVTPGEPASISCQASESLVHSNRNTYLHWYLQKPGQSPQLLIYKVSNRFSGVPDRFSGSGSGTDFTLKISRVEAEDVGVYYCSQNTHVPPTFGQGTKVEIERTVAAPSVFIFPPSDEQLKSGTASVVCLLNNFYPREAKVQWKVDNALQSGNSQESVTEQDSKDSTYSLSSTLTLSKADYEKHKVYACEVTHQGLSSPVTKSFNRGEC"
1.35,55.2,74.5,"GpH7-A5/GpH7-B3 variant G237_16H/GpL16-k0 (antibody, human IgG1, kappa, He Ab: alteration in the GpH7-B3 H chain only; also called He Ab) heavy 1: not shown heavy 2: not shown light: DIVMTQSPLSLPVTPGEPASISCQASESLVHSNRNTYLHWYLQKPGQSPQLLIYKVSNRFSGVPDRFSGSGSGTDFTLKISRVEAEDVGVYYCSQNTHVPPTFGQGTKVEIERTVAAPSVFIFPPSDEQLKSGTASVVCLLNNFYPREAKVQWKVDNALQSGNSQESVTEQDSKDSTYSLSSTLTLSKADYEKHKVYACEVTHQGLSSPVTKSFNRGEC"
